Target: rat agrin (the transmembrane isoform Y4, Z8) (rat) (UniProt P25304)
Assay: cell-based or functional assay

Chain of UniProt P25304 (P25304 whole entry, canonical isoform): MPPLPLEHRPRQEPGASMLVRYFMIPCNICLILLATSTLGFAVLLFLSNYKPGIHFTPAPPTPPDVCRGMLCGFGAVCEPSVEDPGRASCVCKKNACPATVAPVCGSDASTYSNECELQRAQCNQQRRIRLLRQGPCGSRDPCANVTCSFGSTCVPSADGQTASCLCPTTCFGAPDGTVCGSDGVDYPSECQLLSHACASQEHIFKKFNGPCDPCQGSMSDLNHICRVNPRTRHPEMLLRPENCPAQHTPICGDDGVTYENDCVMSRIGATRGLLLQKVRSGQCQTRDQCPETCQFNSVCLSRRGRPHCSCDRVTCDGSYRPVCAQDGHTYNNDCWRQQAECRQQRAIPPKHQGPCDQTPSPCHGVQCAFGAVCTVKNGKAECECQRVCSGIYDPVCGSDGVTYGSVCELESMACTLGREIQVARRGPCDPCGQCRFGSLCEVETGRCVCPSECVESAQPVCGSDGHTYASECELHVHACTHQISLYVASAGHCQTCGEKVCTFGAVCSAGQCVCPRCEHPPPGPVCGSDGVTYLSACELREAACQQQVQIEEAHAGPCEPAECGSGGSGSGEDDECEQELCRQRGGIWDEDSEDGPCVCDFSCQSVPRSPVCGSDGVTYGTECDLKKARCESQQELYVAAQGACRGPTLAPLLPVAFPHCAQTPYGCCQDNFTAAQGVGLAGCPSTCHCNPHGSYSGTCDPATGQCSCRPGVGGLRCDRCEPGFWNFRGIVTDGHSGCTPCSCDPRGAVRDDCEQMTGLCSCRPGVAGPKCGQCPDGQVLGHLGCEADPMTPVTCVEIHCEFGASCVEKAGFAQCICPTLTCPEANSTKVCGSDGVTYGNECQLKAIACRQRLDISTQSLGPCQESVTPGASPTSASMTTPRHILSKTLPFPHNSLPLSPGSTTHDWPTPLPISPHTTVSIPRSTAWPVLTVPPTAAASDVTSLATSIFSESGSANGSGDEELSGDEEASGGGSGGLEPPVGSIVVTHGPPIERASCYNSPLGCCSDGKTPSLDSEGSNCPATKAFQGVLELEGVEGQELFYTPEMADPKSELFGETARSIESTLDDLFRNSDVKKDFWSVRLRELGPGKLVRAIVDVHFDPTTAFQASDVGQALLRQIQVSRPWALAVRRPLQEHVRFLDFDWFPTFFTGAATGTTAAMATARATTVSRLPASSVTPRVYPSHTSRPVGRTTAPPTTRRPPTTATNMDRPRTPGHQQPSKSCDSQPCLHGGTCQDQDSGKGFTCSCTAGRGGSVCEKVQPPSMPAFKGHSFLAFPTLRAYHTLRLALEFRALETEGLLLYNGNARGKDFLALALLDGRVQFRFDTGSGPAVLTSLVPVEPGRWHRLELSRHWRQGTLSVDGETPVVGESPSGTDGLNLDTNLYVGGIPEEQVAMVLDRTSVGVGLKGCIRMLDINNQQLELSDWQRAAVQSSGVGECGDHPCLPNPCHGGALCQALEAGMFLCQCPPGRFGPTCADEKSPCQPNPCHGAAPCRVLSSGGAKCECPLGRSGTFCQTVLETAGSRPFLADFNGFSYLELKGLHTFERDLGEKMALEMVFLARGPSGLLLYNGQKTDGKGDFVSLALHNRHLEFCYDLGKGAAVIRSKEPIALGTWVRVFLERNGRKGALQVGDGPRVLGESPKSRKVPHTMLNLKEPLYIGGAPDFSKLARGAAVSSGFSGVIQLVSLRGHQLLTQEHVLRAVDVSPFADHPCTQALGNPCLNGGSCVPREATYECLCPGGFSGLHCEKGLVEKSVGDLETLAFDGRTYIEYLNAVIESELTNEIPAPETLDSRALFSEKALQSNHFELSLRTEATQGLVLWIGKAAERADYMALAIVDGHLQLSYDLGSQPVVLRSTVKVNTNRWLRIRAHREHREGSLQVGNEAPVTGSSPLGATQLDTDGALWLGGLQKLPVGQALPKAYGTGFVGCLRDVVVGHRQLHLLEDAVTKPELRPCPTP

soluble agrin fragment in culture medium of co-transfected HEK293T cells (Western blot): 100 kDa
Substance: neurotrypsin of the mouse (compound of the formula II) (from UniProt O08762 22-761) (enzyme)
